Results published in patent publication US20020102658A1.

T1: mouse AILIM (mouse) (UniProt Q9WVS0)
T1 sequence (looked up): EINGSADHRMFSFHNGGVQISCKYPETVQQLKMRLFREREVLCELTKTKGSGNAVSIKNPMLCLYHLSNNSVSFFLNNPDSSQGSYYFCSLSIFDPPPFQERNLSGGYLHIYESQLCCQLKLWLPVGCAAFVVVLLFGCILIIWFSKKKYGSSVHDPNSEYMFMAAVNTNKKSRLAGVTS

T2: human AILIM-IgFc (recombinant chimeric antigen of the extracellular region of human AILIM and the constant region (Fc) of human IgG1) (human) (UniProt Q9Y6W8)
T2 sequence (biotin-labeled in the inhibition ELISA of Example 14, looked up): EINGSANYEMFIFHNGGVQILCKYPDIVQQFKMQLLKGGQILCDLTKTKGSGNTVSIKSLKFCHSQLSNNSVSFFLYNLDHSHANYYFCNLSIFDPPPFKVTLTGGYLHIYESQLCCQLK

T3: rat AILIM (rat) (UniProt Q9R1T7)
T3 sequence (looked up): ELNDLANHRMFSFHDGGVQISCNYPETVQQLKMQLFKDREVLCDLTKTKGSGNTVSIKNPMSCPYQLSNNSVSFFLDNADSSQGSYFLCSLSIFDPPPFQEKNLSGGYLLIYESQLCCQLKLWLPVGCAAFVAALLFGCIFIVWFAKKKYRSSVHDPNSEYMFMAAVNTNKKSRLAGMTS


How the values were obtained:
mouse AILIM (mouse) = target: T1, mouse AILIM (mouse); assay: cell ELISA on recombinant CHO cells overexpressing mouse AILIM; given as ED50
[1] = target: T2, human AILIM-IgFc (recombinant chimeric antigen of the extracellular region of human AILIM and the constant region (Fc) of human IgG1) (human); assay: SPR, Biacore X; human AILIM-IgFc immobilised on sensor chip, antibody in flow
rat AILIM (rat) = target: T3, rat AILIM (rat); assay: cell ELISA on recombinant CHO cells overexpressing rat AILIM; given as ED50
[2] = target: human AILIM (activation inducible lymphocyte immunomodulatory molecule) (human) (UniProt Q9Y6W8); assay: cell ELISA on recombinant CHO cells overexpressing human AILIM; given as ED50

EC50 (mouse AILIM (mouse)) [µg/mL]	Kd [1] [nM]	koff [1] [s⁻¹]	EC50 (rat AILIM (rat)) [µg/mL]	EC50 [2] [µg/mL]	Binder
0.053	1.1	4.2e-05	0.057	0.0105	human anti-human AILIM monoclonal antibody JMab-138 (clone AII289) (antibody, from another filing, human IgG2, V domains shown) VH: EVQLVESGGGLVQPGGSLRLSCAASGFTFSSYDMHWVRQATGKGLEWVSAIGTAGDTYYPGSVKGRFTISRENAKNSLYLQMNSLRAGDTAVYYCVRDNRKVTHEHYYYYGMDVWGQGTTVTVSS VL: EIVLTQSPGTLSLSPGERATLSCRASQNIRSSYLAWYQQKPGQAPGLLIYGASSRATGIPDRFSGSGSGTDFTLTISRLEPEDFAVYYCQQFGSSPMCSFGQGTKLEIKR
0.06	0.77	2.4e-05	0.09	0.0106	human anti-human AILIM monoclonal antibody JMab-139 (clone AII394) (antibody, from another filing, human IgG2, V domains shown) VH: EVQLVESGGGLVQPGGSLRLSCAASGFTFSSYDMHWVRQATGKGLEWVSAIGTAGDTYYPGSVKGRFTISRENAKNSLYLQMNSLRAGDTAVYYCVRDKRTVTHEHYYYYGMDVWGQGTTVTVSS VL: EIVLTQSPGTLSLSPGERATLSCRASQSISSSSLAWYQQKPGQAPGLLIFGASSRATGIPDRFSGSGSGTDFTLTISRLEPEDFAVYYCQQFGSSPMCSFGQGTKLEIKR
